From the RNAGym collection of RNA variant scans (doi:10.7554/elife.80360)

B1: CPEB3 Ribozyme (parent)
chain: GGGGGCCACAGCAGAAGCGUUCACGUCGCGGCCCCUGUCAGAUUCUGGUGAAUCUGCGAAUUCUGCUGU

Variants of: B1
Experiment: self-cleavage, relative activity (ratio to wild type); higher = more cleavage; co-transcriptional

Variant | self-cleavage
GGGGGCCACAGCAGAAGCGUUCACGUCCCGGCCCCUGUCAGAUUCUGGUGAAUCUGCGAAGUCUGCUGU [G28C U61G] | 0.229
GGGGGCCACAGCAGAAGCGUUCACGUCCCGGCCCCUGUCAGAUUCUGGUGAAUCUGCGAAAUCUGCUGU [G28C U61A] | 0.256
GGGGGCCACAGCAGAAGCGUUCACGUCCCGGCCCCUGUCAGAUUCUGGUGAAUCAGCGAAUUCUGCUGU [G28C U55A] | 0.241
GGGGGCCACAGCAGAAGCGUUCACGUCUCGGCCCCUGUCAGCUUCUGGUGAAUCUGCGAAUUCUGCUGU [G28U A42C] | 0.153
GGGGGCCACAGCAGAAGCGUUCACGUCUCGGCCCCUGUUAGAUUCUGGUGAAUCUGCGAAUUCUGCUGU [G28U C39U] | 0.171
GGGGGCCACAGCAGAAGCGUUCACGUCCCGGCCCCUGUCAGAUGCUGGUGAAUCUGCGAAUUCUGCUGU [G28C U44G] | 0.191
GGGGGCCACAGCAGAAGCGUUCACGUCUCGGCCCCUGUCUGAUUCUGGUGAAUCUGCGAAUUCUGCUGU [G28U A40U] | 0.213
GGGGGCCACAGCAGAAGCGUUCACGUCUCGACCCCUGUCAGAUUCUGGUGAAUCUGCGAAUUCUGCUGU [G28U G31A] | 0.24
GGGGGCCACAGCAGAAGCGUUCACGUCUCGGCCUCUGUCAGAUUCUGGUGAAUCUGCGAAUUCUGCUGU [G28U C34U] | 0.204
GGGGGCCACAGCAGAAGCGUUCACGUCUCGGCCGCUGUCAGAUUCUGGUGAAUCUGCGAAUUCUGCUGU [G28U C34G] | 0.219
GGGGGCCACAGCAGAAGCGUUCACGUCCCGGCCCCUGUCAGAUUCUGGUGAAUCUGCGAAUUCUGCUCU [G28C G68C] | 0.147
GGGGGCCACAGCAGAAGCGUUCACGUCUCGGCUCCUGUCAGAUUCUGGUGAAUCUGCGAAUUCUGCUGU [G28U C33U] | 0.155
GGGGGCCACAGCAGAAGCGUUCACGUCUCGGUCCCUGUCAGAUUCUGGUGAAUCUGCGAAUUCUGCUGU [G28U C32U] | 0.226
GGGGGCCACAGCAGAAGCGUUCACGUCUCGGGCCCUGUCAGAUUCUGGUGAAUCUGCGAAUUCUGCUGU [G28U C32G] | 0.217
GGGGGCCACAGCAGAAGCGUUCACGUCUCGGCCCCUGUCAGAUUGUGGUGAAUCUGCGAAUUCUGCUGU [G28U C45G] | 0.162
GGGGGCCACAGCAGAAGCGUUCACGUCCCGGCCCCUGUCAGAUUCAGGUGAAUCUGCGAAUUCUGCUGU [G28C U46A] | 0.173
GGGGGCCACAGCAGAAGCGUUCACGUCCCGGCCCCUGUCAGAUUCGGGUGAAUCUGCGAAUUCUGCUGU [G28C U46G] | 0.118
GGGGGCCACAGCAGAAGCGUUCACGUCCCGGCCCCUGUCAGAUUCCGGUGAAUCUGCGAAUUCUGCUGU [G28C U46C] | 0.131
GGGGGCCACAGCAGAAGCGUUCACGUCUCGGCCCCUGUCAGAUUCUGGUGAAUCUGCGAUUUCUGCUGU [G28U A60U] | 0.138
GGGGGCCACAGCAGAAGCGUUCACGUCUGGGCCCCUGUCAGAUUCUGGUGAAUCUGCGAAUUCUGCUGU [G28U C29G] | 0.129

Variant | self-cleavage
GGGGGCCACAGCAGAAGCGUUCACGUCUCGGCCCCUGUCAGAUUCUGGUGAAUUUGCGAAUUCUGCUGU [G28U C54U] | 0.178
GGGGGCCACAGCAGAAGCGUUCACGUCUCGGCCCCUGUCAGAUUCUGGUGUAUCUGCGAAUUCUGCUGU [G28U A51U] | 0.182
GGGGGCCACAGCAGAAGCGUUCACGUCCCGGCCCCUGUCAGAUUCUGGUGAAUCUGCGAAUUCUGCAGU [G28C U67A] | 0.182
GGGGGCCACAGCAGAAGCGUUCACGUCCCGGCCCCUGUCAGAUUCUGGUGAAUCUGCGAAUUCUGCUGC [G28C U69C] | 0.276
GGGGGCCACAGCAGAAGCGUUCACGUCCCGGCCCCUGUCAGAUUCUGGUGAAUCUGCGAAUUCUGCUGG [G28C U69G] | 0.301
GGGGGCCACAGCAGAAGCGUUCACGUCUCGGCCCCUGUCAGAUUCUGGUGAAUCUGCGAAUUCUGCUGU [G28U] | 0.178
GGGGGCCACAGCAGAAGCGUUCACGUCUCGGCCCCUAUCAGAUUCUGGUGAAUCUGCGAAUUCUGCUGU [G28U G37A] | 0.206
GGGGGCCACAGCAGAAGCGUUCACGUCUCGGCCCUUGUCAGAUUCUGGUGAAUCUGCGAAUUCUGCUGU [G28U C35U] | 0.192
GGGGGCCACAGCAGAAGCGUUCACGUCCCGGCCCCUGUCAGAUUCUGGUGAAUCUGCGAAUUCCGCUGU [G28C U64C] | 0.194
GGGGGCCACAGCAGAAGCGUUCACGUCUCGGCCCCUGUCAGAUUCUGGUGAGUCUGCGAAUUCUGCUGU [G28U A52G] | 0.18
GGGGGCCACAGCAGAAGCGUUCACGUCCCGGCCCCUGUCAGAUUCUGGUGAAUCUGCGAAUUCUUCUGU [G28C G65U] | 0.16
GGGGGCCACAGCAGAAGCGUUCACGUCUCGGCCCCUGUCAGAUUCUGGUGAAUCUGGGAAUUCUGCUGU [G28U C57G] | 0.161
GGGGGCCACAGCAGAAGCGUUCACGUCUCGGCCCCUGUCAGAUUCUGGUGAAUCUGAGAAUUCUGCUGU [G28U C57A] | 0.188
GGGGGCCACAGCAGAAGCGUUCACGUCUCGGCCCCUGUCAGAUUCUGGUGAAUCUGCGCAUUCUGCUGU [G28U A59C] | 0.251
GGGGGCCACAGCAGAAGCGUUCACGUCCCGGCCCCUGACAGAUUCUGGUGAAUCUGCGAAUUCUGCUGU [G28C U38A] | 0.222
GGGGGCCACAGCAGAAGCGUUCACGUCCCGGCCCCUGGCAGAUUCUGGUGAAUCUGCGAAUUCUGCUGU [G28C U38G] | 0.133
GGGGGCCACAGCAGAAGCGUUCACGUCCCGGCCCCUGUCAGAUUCUGGAGAAUCUGCGAAUUCUGCUGU [G28C U49A] | 0.126
GGGGGCCACAGCAGAAGCGUUCACGUCCCGGCCCCUGUCAGAUUCUGGGGAAUCUGCGAAUUCUGCUGU [G28C U49G] | 0.182
GGGGGCCACAGCAGAAGCGUUCACGUCCCGGCCCCUGUCAGAUUCUGGUGAAUCUGCGAAUGCUGCUGU [G28C U62G] | 0.209
